Experimental data reported in paper PMC5756113 (Peptides, 2017).

Assays:
[1] = mouse, in vivo
[2] = in vivo, cited from earlier work
[3] = mouse, in vivo; remark: listed apart in the source

Row | Substance | Average rate of I-PACAP38 transport into whole brain in the No-Sham Controls [1] | Average rate of transport into the whole brain for all groups [1] | Increase in the Vi, CCI versus Sham [1] | Transport rate in cerebellum compared to the cortices and whole brain [1] | Rate of PACAP38 transport across the mouse BBB [2] | Amount of I-PACAP38 to enter the brain ([2]; mouse) | Vi previously reported ([2]; mouse) | %Inj/g in cerebellum (average) [3] | Amount of I-PACAP38 to enter the brain (value calculated here) [3] | I-PACAP38 %Inj/g in the ipsilateral cortex, CCI compared to Sham [3] | Increase in the rate of transport at 72 hours post-CCI compared to the 2 hour time point [1] | Half-time disappearance of PACAP38 from the blood ([2]; mouse)
1 | I-PACAP38: 38-amino acid form of PACAP (Bachem) radioactively labeled with 125I by the lactoperoxidase method | 2.35 µL/g/min | 2.98 µL/g/min | 1.4 fold | ~2 fold | 2.86 µL/g/min | 0.119 %Inj/g | 18.5 µL/g | 0.37 %Inj/g | 0.15 %Inj/g | nearly a doubling |  | 
2 | Pituitary adenylate cyclase-activating polypeptide 38 [PACAP38, reference compound] |  |  |  |  | 2.86 ± 0.57 µL/g/min |  |  |  |  |  | 2–3 fold | 0.82 min
